Results on two substances are retold here after patent US20070020757A1.

The target of experiment [1] is receptor for Angptl2 expressed on mouse bone marrow hematopoietic stem cells (unidentified) (mouse). Kind of experiment: flow cytometry; fresh mouse bone marrow cells, ~1 ug/ml Angptl2-hFc at 4 C for 30 min, anti-human IgG1-PE. In general terms: A flow cytometer gives signals particle by particle.
For experiment [2] the target is unchanged. Briefly: flow cytometry; 4 day cultured mouse bone marrow cells, ~1 ug/ml Flag-Angptl2 medium.

“Angptl2-hFc (human Angptl2 fused to Pro 100-Lys 330 of human IgG1 Fc) (from UniProt Q9UKU9 23-493) (Fc fusion)” gave a percent of total bone marrow cells that bind in experiment [1] of 12.8%.

Regarding “FLAG-hAngptl2 (human Angptl2 with a FLAG tag fused at the C-terminus) (from UniProt Q9UKU9 23-493) (ligand)”, the percent of total cells that bind in experiment [2] came to 5.3%.
